This is an account of results in ChEMBL document CHEMBL1773060, “Two-step synthesis of novel, bioactive derivatives of the ubiquitous cofactor nicotinamide adenine dinucleotide (NAD)” (J Med Chem, 2011).

Substrate in this series: NC(=O)c1ccc[n+]([C@@H]2O[C@H](COP(=O)([O-])OP(=O)(O)OC[C@H]3O[C@@H](n4cnc5c(N)ncnc54)[C@H](O)[C@@H]3O)[C@@H](O)[C@H]2O)c1
Description: Activity at human SIRT1 assessed as ADP-ribosyltransferase activity.

B1: NAD-dependent protein deacetylase sirtuin-1 (Homo sapiens), Q96EB6 (protein)
chain: MADEAALALQPGGSPSAAGADREAASSPAGEPLRKRPRRDGPGLERSPGEPGGAAPEREVPAAARGCPGAAAAALWREAEAEAAAAGGEQEAQATAAAGEGDNGPGLQGPSREPPLADNLYDEDDDDEGEEEEEAAAAAIGYRDNLLFGDEIITNGFHSCESDEEDRASHASSSDWTPRPRIGPYTFVQQHLMIGTDPRTILKDLLPETIPPPELDDMTLWQIVINILSEPPKRKKRKDINTIEDAVKLLQECKKIIVLTGAGVSVSCGIPDFRSRDGIYARLAVDFPDLPDPQAMFDIEYFRKDPRPFFKFAKEIYPGQFQPSLCHKFIALSDKEGKLLRNYTQNIDTLEQVAGIQRIIQCHGSFATASCLICKYKVDCEAVRGDIFNQVVPRCPRCPADEPLAIMKPEIVFFGENLPEQFHRAMKYDKDEVDLLIVIGSSLKVRPVALIPSSIPHEVPQILINREPLPHLHFDVELLGDCDVIINELCHRLGGEYAKLCCNPVKLSEITEKPPRTQKELAYLSELPPTPLHVSEDSSSPERTSPPDSSVIVTLLDQAAKSNDDLDVSESKGCMEEKPQEVQTSRNVESIAEQMENPDLKNVGSSTGEKNERTSVAGTVRKCWPNRVAKEQISRRLDGNQYLFLPPNRYIFHGAEVYSDSEDDVLSSSSCGSNSDSGTCQSPSLEEPMEDESEIEEFYNGLEDEPDVPERAGGAGFGTDGDDQEAINEAISVKQEVTDMNYPSNKS
B1: the Km was found to be 80 µM.
